Reference: publication PMC10734219, “Characterization of the Membrane-Associated Electron-Bifurcating Flavoenzyme EtfABCX from the Hyperthermophilic Bacterium Thermotoga maritima” (Biochemistry, 2023)
Where “and” joins values, the source holds several entries; their conditions need not be identical. Equal entries are not always repeated.

Biological target: the molecule itself
Assay: SEC; purified recombinant EtfABCX analysed by size exclusion chromatography; peaks assigned by mass; EtfABCX protomers to superdimer and super-tetramer

B1: Thermotoga maritima EtfABCX holoenzyme (heterotetrameric protomer) (complex)
chain 1: MNVVVCIKQVPDTTNVRIDRKTNNLVREGVPSIINPDDERALELASQLKEKFGATVYVITMGPPQAKEALKDAIAFGLDEAVHLSDRTFAGADTLATTYTLYWGIKKIEERIGKIDLILTGKQAVDGDTGQVGPGLATRFGYALGAYVVRIEEIDPEKKEMVIVRRLDQGFEKIRLKLPAVLTITDELNKPRYADLPNLIRAIRYEPIVWTHKDLGLDPKKCGFFGSPTRVVSTNIPPARKGGDIISKNEDPEVAAEKLIEALKKFEAVRLVEALKPVLEGEKDE
chain 2: MSEKKIIFVLIEHHGGKAHPVSWELIGKARDLASKLENSEVWGVLLGEGLESVAKEAIQRGADKVLYVKNREFNTYVNYLYKKALVDMVRKYRPEIFLIGATLEGRELAGMVATELETGLTADCTGLDIIPDKKLLAMTRPTFGGNLMATIMCPDHRPQMATVRPGVMKELPPDPERTGEIIEEEYDLGTFDKLIEILETIPLQTQVNLEYAPVVVAGGKGVGGPEGFKKLKELADLLGGEVGASRAAVKAGWISPEHQVGQTGKTVRPVLYFACGISGAIQHVVGIKESEIIVAINIDEKAPIFDIADIGIVGDLHKVVPALTAKLRELLNKSGVKK
chain 3: MKIEFDVVVVGAGPSGLSCAYVLAKNGLKVAVVEKGEYPGSKNVMGGVLYVHPLKEIMPDFLEKAANSKALERNVIEQNLWLLGNEGVIKIGHRNVEWKENPNAFTVLRANFDRWFAQEVEKAGALIIPKTKVEDFLRNEKGEIAGVVTSRPKGEIHSKAVVIAEGVNPILTMKAGLRKEDLKPHMVAVAVKEVISVPEDVVNRVFGVEGNDGATIELLGSWSEGMFGMGFLYANRSSVSLGCGVLLEDLRKKKIKPYQLLENLKNHPVISDMLGEYRNNTMEYLAHLIPEGGYYAMPKVYGDRVLVCGDAAMLVNSIHREGSNHAITSGRLAAETLLEAFEKGDFSEKILKNYYLRLKESFILKDLEKYKDLMPTMEKNHQFVEIYPDLANDALKRFLQVDGTPKWDVQKQIADMVLSRRSLIGISLDLLRFWRAVR
chain 4: MRIEDKLYLNRYRTDEENPHLKIKDESICAEKCSDRPCVSCCPADVYEWTESGMEVKFEGCLECGTCRIVCPFGNIEWNYPRGNYGVLYKFG
With B1 the “stoichiometry N” value was 2 and 4.
